Drawing on publication PMC3314626, “Crystal Structures of the Tetratricopeptide Repeat Domains of Kinesin Light Chains: Insight into Cargo Recognition Mechanisms” (PLoS ONE, 2012), this text covers Kd and stoichiometry N for one substance.

The test concerns the target KLC1 TPR domain (kinesin light chain 1 tetratricopeptide repeat domain) (human) (UniProt Q07866). Description: ITC; protein-protein: 15 uM KLC1-TPR and 160 uM ALC1 protein; 25 C; 30 mM HEPES 7.4, 200 mM NaCl, 0.5 mM TCEP; one-site binding model. On the technique in general: In ITC the heat of successive injections is recorded.

In general, Kd refers to the equilibrium constant for the complex coming apart. As usually defined, the stoichiometry N is a count of units in the complex or per binding partner. Take “cytosolic domain of ALC1 protein (alcadein-1) (domain or fragment)”: the Kd turned out to be 2400 nM and the stoichiometry N turned out to be 0.85.
